In patent US20260193375A1 (NORMUNITY, published 2026):
Where a chain is given by its changes, count along the chain named.

T1: Human LY6K (R&D Systems) (human, UniProt Q17RY6 18-138, limits assumed)
T1 construct: Bought from R&D Systems, coated on ELISA plates; also called hLY6K
T1 sequence: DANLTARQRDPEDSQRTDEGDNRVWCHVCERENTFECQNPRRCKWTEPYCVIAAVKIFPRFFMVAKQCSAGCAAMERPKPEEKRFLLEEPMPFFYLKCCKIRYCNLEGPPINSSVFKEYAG

T2: human LY6E (R&D Systems) (human, UniProt Q16553 21-101, limits assumed)
T2 construct: also called hLY6E
T2 sequence (looked up): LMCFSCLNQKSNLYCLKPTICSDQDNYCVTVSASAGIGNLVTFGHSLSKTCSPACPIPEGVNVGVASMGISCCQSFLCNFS

T3: cell-surface anchored LY6K (human, UniProt Q17RY6 18-138)
T3 construct: the cell is named under assay; also called LY6K on target cells
T3 sequence: T1 sequence

T4: recombinant human LY6K (Wuxi) (human, UniProt Q17RY6 18-138)
T4 construct: Limits of the construct not clearly stated; also called Human LY6K (Wuxi LY^KGLY138(1-38TR)_8His)
T4 sequence: T1 sequence

T5: hLY6K-his (human, UniProt Q17RY6 18-138, limits assumed)
T5 construct: not shown: his tag
T5 sequence: T1 sequence

T6: hLY6K-mFc (human, UniProt Q17RY6 18-138)
T6 construct: not shown: mFc
T6 sequence: T1 sequence

T7: Ly6D
T7 chain: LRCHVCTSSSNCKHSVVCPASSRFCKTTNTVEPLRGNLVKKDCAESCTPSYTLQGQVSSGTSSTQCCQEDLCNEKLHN

T8: Ly6H
T8 chain: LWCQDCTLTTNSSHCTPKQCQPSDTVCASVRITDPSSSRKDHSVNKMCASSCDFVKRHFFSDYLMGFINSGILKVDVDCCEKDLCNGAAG

B1: anti-LY6K antibody 3785 (antibody, V domains shown)
VH: QVQLQQSGPGLVKPSQTLSLTCAISGDSVSSNSAAWNWIRQSPSRGLEWLGRTYFRSKWNNDYTLSVKNRITINPDTSKNHFSLQLNSVTPEDTAVYYCAGGGYCNRTYCPDVFDIWGQGTMVTVSS
VL: DIQMTQSPSSLSASVGDRVTFTCRSSQSISSYLNWYQQKPGKAPNLLIYVASTLQSGVPSRFSGSGSGTDFTLTISSLQPEDFATYYCQQSYSIPLTFGGGTKVEIK
B2: anti-LY6K antibody 2660 (antibody, V domains shown)
VH: EVQLVESGGGLVKPGGSLRLSCAASGFTFSDVWMSWVRQAPGKGLEWVGRIKSKTDGGRIDYAAPVKGRFTISRDDSKNTLYLQMNSLKTEDTAVYYCTTVPYSDYWGQGTLVTVSS
VL: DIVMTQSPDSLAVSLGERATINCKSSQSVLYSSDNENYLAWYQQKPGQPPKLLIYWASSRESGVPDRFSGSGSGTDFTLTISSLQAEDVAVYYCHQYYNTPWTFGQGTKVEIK
B3: anti-LY6K antibody 3096 (antibody, V domains shown)
VH: QVQLVQSGAEVKKPGASVRVSCKASGYTFTGYYIHWVRQAPGQGLEWMGWINPNSGGTNYAQKFQDRVTMTRDTSISTVYMELSRLRSDDTAVFFCAREASNFWGQGTLVTVSS
VL: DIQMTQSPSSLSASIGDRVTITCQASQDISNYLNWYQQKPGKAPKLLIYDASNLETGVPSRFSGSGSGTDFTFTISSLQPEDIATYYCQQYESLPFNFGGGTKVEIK
B4: anti-LY6K antibody 3035 (antibody, V domains shown)
VH: EVQLVESGGGLVQPGGSLKLSCAASGFTFSDSTLHWVRQASGKGLEWVGRIRSKANSYATAYAASVKGRFTISRDDSKNTAYLQMNSLKTEDTAVYYCHNWSYGYWGQGTLVTVSS
VL: QTVVTQEPSLTVSPGGTVTLTCASSTGAVTSYYYPNWFQQKPGQAPRTVIYSTTNKHSWTPARFSGSLLGGKAALTLSGVLPEDEADYYCLLFYGGAYVFGTGTKVTVL
B5: anti-LY6K antibody 3705 (antibody, V domains shown)
VH: EVQLVESGGGLVHPGRSLRLSCAASGFTFDDYAMHWVRQAPGKGLEWVSGISWKNGKIDYADSVKGRFITSRDNAKNSLYLQMNSLRTEDTALYYCAKDRIEMTFDIWGQGTMVTVSS
VL: DIVMTQSPLSSPVTLGQPASISCRSSQSLEHSNGNTYLSWLQQRPGQPPRLLIYKISNRFSGVPDRFSGSGAGTDFTLKISRVEAEDVGVYYCMQTTQFPLTFGGGTKVEIK
B6: anti-LY6K antibody 3074 (antibody, V domains shown)
VH: B5 VH with N55T, G56N, I69T, L93F, I101R
VL: B5 VL with S7T, V90I, T96A
B7: anti-LY6K antibody 3101 (antibody, V domains shown)
VH: EVQLVESGGGLVQPGRSLRLSCAASGFTFDDYAMHWVRQTPGKGLEWVSGITWKSGNIGYADSVKGRFTISRDNAKNSLYLQMNSLRAEDTALYYCAKDTEAGLDYWGQGTLVTVSS
VL: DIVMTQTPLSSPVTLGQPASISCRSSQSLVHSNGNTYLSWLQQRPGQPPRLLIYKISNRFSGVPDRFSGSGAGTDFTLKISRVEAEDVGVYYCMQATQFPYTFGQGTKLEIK
B8: anti-LY6K antibody 3048 (antibody, V domains shown)
VH: B7 VH with T40A, N57T, T100S, E101R, A102T, T111A
VL: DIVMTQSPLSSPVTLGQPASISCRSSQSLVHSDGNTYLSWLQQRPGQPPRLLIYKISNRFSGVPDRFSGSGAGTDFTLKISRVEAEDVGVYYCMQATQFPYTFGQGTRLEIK
B9: anti-LY6K antibody 3481 (antibody, V domains shown)
VH: B7 VH with P14S, T40A, S55D, G56V, N57T, R87G, E101S, A102D
VL: B5 VL with S7T, E30V, A85T, V90I, T96A, T97I, L101Y, G105Q, V109L
B10: anti-LY6K antibody 3741 (antibody, V domains shown)
VH: EVQLVESGGGLVKPGGSLRLSCAASGFTFSSYSMNWVRQAPGKGLEWVSSISSSSNYIYYVDSVKGRFTTSRDNAKNSLYLQMNSLRAEDTAVYYCARQEATGNNYYYYYMDVWGKGTTVTVSS
VL: DIQMTQSPSSLSASVGDRVTITCRASQSISNYLNWYQQNLGKAPKVLIYAASSLQSGVPSRFSGSGSGTDFTLTISSLQPEDFATYYCQQTYSTPITFGQGTRLEIK

molecular target: T1, Human LY6K (R&D Systems); experiment: ELISA, coated antigen, IgG1 at 10 ug/ml

| Binder | % of maximum of commercial anti-LY6K mAb on human LY6K [%] |
| --- | --- |
| B1 | 43.7 |
| B2 | 95.1 |
| B3 | 35 |
| B4 | 65.2 |
| B5 | 102 |
| B6 | 89.2 |
| B7 | 94.9 |
| B8 | 81.2 |
| B9 | 99.4 |
| B10 | 67.6 |

molecular target: T9, cynomolgus monkey LY6K (R&D Systems) (cynomolgus monkey); experiment: ELISA, coated antigen, IgG1 at 10 ug/ml
T9 construct: also called cyLY6K

| Binder | % of maximum of commercial anti-LY6K mAb on human LY6K [%] |
| --- | --- |
| B1 | 57.2 |
| B2 | 106 |
| B3 | 37.2 |
| B4 | 71.4 |
| B5 | 1.1 |
| B6 | -0.2 |
| B7 | 3 |
| B8 | 0.1 |
| B9 | 0.2 |
| B10 | 66.4 |

molecular target: T10, rat LY6K (R&D Systems) (rat); experiment: ELISA, coated antigen, IgG1 at 10 ug/ml
T10 construct: also called rLY6K

| Binder | % of maximum of commercial anti-LY6K mAb on human LY6K [%] |
| --- | --- |
| B1 | 2.5 |
| B2 | -0.1 |
| B3 | 0 |
| B4 | 1 |
| B5 | 0 |
| B6 | -1.2 |
| B7 | 0.6 |
| B8 | 1.5 |
| B9 | 0.9 |
| B10 | -1.6 |

molecular target: T2, human LY6E (R&D Systems); experiment: ELISA, coated antigen, IgG1 at 10 ug/ml

| Binder | % of maximum of commercial anti-LY6K mAb on human LY6K [%] |
| --- | --- |
| B1 | 4.5 |
| B2 | 3.1 |
| B3 | 1 |
| B4 | 5.6 |
| B5 | 7.8 |
| B6 | 3.4 |
| B7 | 2.4 |
| B8 | 2.5 |
| B9 | 2.7 |
| B10 | 3.1 |

molecular target: T3, cell-surface anchored LY6K; experiment: flow cytometry on target cells, MFI fitted in Prism

| Binder | EC50 [nM] |
| --- | --- |
| B2 | 0.364 |
| B5 | 58.1 |
| B6 | 164 |
| B8 | 3.33 |
| B9 | 2.84 |

molecular target: T4, recombinant human LY6K (Wuxi); experiment: ELISA, LY6K coated at 2 ug/mL, HRP-labelled mAb titrated

| Binder | EC50 [nM] |
| --- | --- |
| B2 | 1.57 |
| B4 | 2.86 |
| B5 | 16.2 |
| B6 | 5.2 |
| B8 | 2.65 |
| B9 | 2.08 |
| B10 | 3.08 |

molecular target: T5, hLY6K-his; experiment: SPR (Carterra LSA), mAb captured on anti-human IgG-Fc, antigen as analyte

| Binder | Kd [nM] |
| --- | --- |
| B1 | 7.48 |
| B2 | 3.59 |
| B3 | 63.8 |
| B5 | 6.31 |
| B6 | 3.23 |
| B7 | 1.83 |
| B8 | 4.7 |
| B9 | 1.19 |
| B10 | 5.66 |

molecular target: T6, hLY6K-mFc; experiment: as above

| Binder | Kd [nM] |
| --- | --- |
| B1 | 0.263 |
| B2 | 0.00702 |
| B3 | 1.36 |
| B5 | 0.185 |
| B6 | 0.164 |
| B7 | 0.0264 |
| B8 | 0.0428 |
| B9 | 0.0157 |
| B10 | 0.0505 |

molecular target: cyLY6K-mFc (cynomolgus monkey); experiment: as above

| Binder | Kd [nM] |
| --- | --- |
| B1 | 1.39 |
| B2 | 0.0518 |
| B3 | 9.49 |
| B10 | 0.379 |

Molecular target: T7, Ly6D
Experiment: ELISA, antigen coated on the plate, antibody as human IgG1, anti-human F(ab)2 HRPO

| Binder | binding result |
| --- | --- |
| B1 | no binding (tested: 10 µg/ml) |
| B2 | no binding (tested: 10 µg/ml) |
| B4 | no binding (tested: 10 µg/ml) |
| B6 | no binding (tested: 10 µg/ml) |
| B10 | no binding (tested: 10 µg/ml) |

Molecular target: T8, Ly6H
Experiment: as above

| Binder | binding result |
| --- | --- |
| B1 | no binding (tested: 10 µg/ml) |
| B2 | no binding (tested: 10 µg/ml) |
| B4 | no binding (tested: 10 µg/ml) |
| B6 | no binding (tested: 10 µg/ml) |
| B10 | no binding (tested: 10 µg/ml) |

molecular target: T2, human LY6E (R&D Systems); experiment: as above

| Binder | binding result |
| --- | --- |
| B1 | no binding (tested: 10 µg/ml) |
| B2 | no binding (tested: 10 µg/ml) |
| B4 | no binding (tested: 10 µg/ml) |
| B6 | no binding (tested: 10 µg/ml) |
| B10 | no binding (tested: 10 µg/ml) |

molecular target: T4, recombinant human LY6K (Wuxi); experiment: capture ELISA (MSD): antibody coated as capture at 2 µg/mL, recombinant human LY6K titrated, sulfo-tagged polyclonal anti-hLY6K (AF6648) for detection; EC50 is the LY6K concentration

| Binder | EC50 [µg/mL] |
| --- | --- |
| B2 | 0.0756 |
| B4 | 0.168 |
| B6 | 0.315 |
| B7 | 0.163 |
| B10 | 0.0568 |
